Test results reported in paper PMC9181642.

biological target: insulin receptor (mouse (endogenous in 3T3-L1)); test: co-IP; lysates of differentiated, serum-deprived 3T3-L1 adipocytes, untreated or treated with 100 nM Ang II for 60 min (for PKCβII also 10 µM DuP 753 for 30 min before Ang II); lysis in 50 mM Tris-HCl, 150 mM NaCl, 1% Nonidet P-40, 10% glycerol, 2 mM EDTA, pH 7.4; IR precipitated with anti-IR-β polyclonal antibody and protein A/G PLUS-Agarose; blots probed with anti-PKCα, -βI, -βII or -δ and quantified by densitometry
Sequence (P15208 28-1372): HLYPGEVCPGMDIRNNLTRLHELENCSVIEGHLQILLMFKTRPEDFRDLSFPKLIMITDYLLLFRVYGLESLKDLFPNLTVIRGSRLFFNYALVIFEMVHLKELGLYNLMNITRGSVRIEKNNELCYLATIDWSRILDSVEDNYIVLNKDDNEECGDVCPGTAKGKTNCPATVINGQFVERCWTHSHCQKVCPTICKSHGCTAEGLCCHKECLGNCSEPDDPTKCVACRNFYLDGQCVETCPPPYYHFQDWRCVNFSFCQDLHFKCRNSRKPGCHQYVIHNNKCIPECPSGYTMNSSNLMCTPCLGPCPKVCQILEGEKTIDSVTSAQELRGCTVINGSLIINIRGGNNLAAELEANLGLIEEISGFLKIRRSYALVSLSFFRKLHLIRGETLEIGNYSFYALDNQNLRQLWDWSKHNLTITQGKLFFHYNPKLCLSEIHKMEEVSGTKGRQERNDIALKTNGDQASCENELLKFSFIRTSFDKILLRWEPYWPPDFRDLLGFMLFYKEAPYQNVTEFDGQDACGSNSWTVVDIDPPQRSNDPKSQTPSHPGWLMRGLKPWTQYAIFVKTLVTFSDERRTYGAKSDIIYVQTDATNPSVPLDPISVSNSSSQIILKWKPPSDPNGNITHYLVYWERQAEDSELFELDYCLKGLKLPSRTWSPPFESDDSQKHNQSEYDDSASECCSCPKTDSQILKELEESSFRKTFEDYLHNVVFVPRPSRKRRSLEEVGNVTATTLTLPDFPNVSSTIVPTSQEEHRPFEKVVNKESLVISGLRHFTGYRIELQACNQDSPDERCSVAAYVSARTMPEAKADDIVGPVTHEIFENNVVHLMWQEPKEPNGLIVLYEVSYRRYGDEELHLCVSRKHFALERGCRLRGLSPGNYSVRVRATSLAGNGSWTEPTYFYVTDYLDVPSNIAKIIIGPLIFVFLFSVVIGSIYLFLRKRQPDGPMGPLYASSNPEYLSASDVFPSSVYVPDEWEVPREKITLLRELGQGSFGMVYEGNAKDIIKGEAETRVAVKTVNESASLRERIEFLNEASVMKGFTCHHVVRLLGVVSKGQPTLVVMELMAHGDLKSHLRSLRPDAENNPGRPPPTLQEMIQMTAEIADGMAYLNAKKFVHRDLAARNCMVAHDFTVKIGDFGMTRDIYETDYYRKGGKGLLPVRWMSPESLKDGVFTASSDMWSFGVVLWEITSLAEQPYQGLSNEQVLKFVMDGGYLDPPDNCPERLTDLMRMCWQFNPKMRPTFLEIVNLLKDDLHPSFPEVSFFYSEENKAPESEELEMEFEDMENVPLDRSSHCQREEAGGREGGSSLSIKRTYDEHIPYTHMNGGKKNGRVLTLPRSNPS

Row | Substance | fold increase of the association with Ang II over control cells [fold]
1 | PKCα (from UniProt P20444 1-672) (enzyme) | 2
2 | PKCβI (from UniProt P68404 1-671) (enzyme) | 1.2
3 | PKCβII (from UniProt P68404-2 1-673) (enzyme) | 4
4 | PKCδ (from UniProt P28867 1-674) (enzyme) | 1.5
